# Values of other authors, collected in publication PMC8910571.
# pKd: −log10 of the molar value.
# Molecular target: T1, PTK7 (tyrosine kinase 7 protein) (UniProt Q13308)
# T1 sequence: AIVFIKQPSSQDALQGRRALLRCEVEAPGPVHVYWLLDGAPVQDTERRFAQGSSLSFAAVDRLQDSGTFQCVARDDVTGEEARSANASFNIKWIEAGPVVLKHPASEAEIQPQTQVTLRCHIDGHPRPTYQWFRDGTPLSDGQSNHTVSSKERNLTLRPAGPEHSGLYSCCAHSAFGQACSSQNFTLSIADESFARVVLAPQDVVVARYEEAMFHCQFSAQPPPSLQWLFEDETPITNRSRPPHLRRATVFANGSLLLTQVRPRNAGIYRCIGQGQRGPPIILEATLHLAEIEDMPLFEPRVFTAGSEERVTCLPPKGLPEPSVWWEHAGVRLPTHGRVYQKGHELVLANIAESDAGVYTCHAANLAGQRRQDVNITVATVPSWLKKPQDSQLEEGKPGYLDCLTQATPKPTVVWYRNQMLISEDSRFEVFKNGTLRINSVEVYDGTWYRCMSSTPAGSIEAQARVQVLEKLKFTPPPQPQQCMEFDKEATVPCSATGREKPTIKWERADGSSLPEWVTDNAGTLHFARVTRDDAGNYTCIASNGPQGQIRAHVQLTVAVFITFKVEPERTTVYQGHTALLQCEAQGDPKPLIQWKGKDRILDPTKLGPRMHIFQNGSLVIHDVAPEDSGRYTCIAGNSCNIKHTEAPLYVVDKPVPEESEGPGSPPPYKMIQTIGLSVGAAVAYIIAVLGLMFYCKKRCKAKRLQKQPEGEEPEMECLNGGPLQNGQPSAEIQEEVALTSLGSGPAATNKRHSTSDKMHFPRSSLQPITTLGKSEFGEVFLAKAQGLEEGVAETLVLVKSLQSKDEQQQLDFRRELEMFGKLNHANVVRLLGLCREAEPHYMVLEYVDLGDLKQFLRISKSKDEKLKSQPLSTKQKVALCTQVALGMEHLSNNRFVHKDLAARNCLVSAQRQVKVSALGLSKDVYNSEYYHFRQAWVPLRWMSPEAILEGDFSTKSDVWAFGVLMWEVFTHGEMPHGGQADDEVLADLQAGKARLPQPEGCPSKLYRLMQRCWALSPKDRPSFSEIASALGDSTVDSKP
sequence,measurement,value
ATCTAACTGCTGCGCCGCCGGGAAAATACTGTACGGTTAGA [Sgc8-c],pKd,9.11
